The text below walks through data of ChEMBL document CHEMBL2074257, “Expression cloning of a Na+-independent aromatic amino acid transporter with structural similarity to H+/monocarboxylate transporters” (J Biol Chem, 2001).

The target of data set [1] is T1, Monocarboxylate transporter 10 (Rattus norvegicus, UniProt Q91Y77).
T1 sequence (Q91Y77 whole entry): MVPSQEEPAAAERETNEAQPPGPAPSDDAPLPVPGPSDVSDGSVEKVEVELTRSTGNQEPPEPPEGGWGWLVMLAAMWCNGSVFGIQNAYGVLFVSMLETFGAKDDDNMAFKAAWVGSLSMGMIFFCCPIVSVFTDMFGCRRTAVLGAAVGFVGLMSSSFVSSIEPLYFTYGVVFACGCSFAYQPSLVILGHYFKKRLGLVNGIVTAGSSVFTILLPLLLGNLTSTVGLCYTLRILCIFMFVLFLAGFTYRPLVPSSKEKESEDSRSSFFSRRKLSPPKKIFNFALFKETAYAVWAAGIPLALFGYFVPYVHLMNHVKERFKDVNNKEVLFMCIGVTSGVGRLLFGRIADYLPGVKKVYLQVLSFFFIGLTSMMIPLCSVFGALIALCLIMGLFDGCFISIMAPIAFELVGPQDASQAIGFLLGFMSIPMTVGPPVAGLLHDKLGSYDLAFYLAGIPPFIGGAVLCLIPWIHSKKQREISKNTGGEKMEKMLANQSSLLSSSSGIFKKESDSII
Description: TP_TRANSPORTER: inhibition of L-tryptophan uptake in Xenopus laevis oocytes. Format: functional, cell-based, Oocyte.

Substrate in data set [2]: N[C@@H](Cc1ccccc1)C(=O)O
To be noted: Xenopus laevis; Oocyte.

Substrate in data set [3]: N[C@@H](Cc1ccc(O)cc1)C(=O)O
As to conditions: Xenopus laevis; Oocyte.

Substrate in data set [4]: N[C@@H](Cc1ccc(O)c(O)c1)C(=O)O
To be noted: Xenopus laevis; Oocyte.

Substrate in data set [5]: N[C@@H](Cc1c[nH]c2ccccc12)C(=O)O
To be noted: Xenopus laevis; Oocyte.

A word on the Ki: it is the equilibrium dissociation constant of an inhibitor or competing ligand from its target. Lower therefore signals higher affinity. `CC(=O)N[C@@H](Cc1c[nH]c2ccccc12)C(=O)O` [ACETYLTRYPTOPHAN] showed an inhibition constant (Ki) in data set [1] of 1500 µM.
In data set [1], `CN[C@@H](Cc1c[nH]c2ccccc12)C(=O)O` [ABRINE] gave a Ki of 3100 µM.

B1: Monocarboxylate transporter 10 (Rattus norvegicus), Q91Y77 (protein)
chain: T1 sequence (Q91Y77 whole entry)
The Km is the concentration of substrate that gives half-maximal velocity. With B1, the Michaelis constant (Km) in data set [2] was 7.02 mM; in data set [3], 2.59 mM; in data set [4], 6.43 mM; in data set [5], 3.72 mM.
